Legend:
[1] = biological target: Cupriavidus metallidurans Betaproteobacteria proteasome homolog (Cm-BPH) (Cupriavidus metallidurans); experiment: AUC + SEC-MALS; sedimentation velocity: 0.5 mg/ml protein in buffer A, 20 °C, 40,000 rpm; SEC-coupled multiangle light scattering; self-assembly
[2] = biological target: Cupriavidus metallidurans Betaproteobacteria proteasome homolog (Cm-BPH) (Cupriavidus metallidurans); experiment: SEC-SAXS; Shodex Kw-403 column, 20 °C, 20 mM HEPES-NaOH pH 8.0, 150 mM NaCl, 2 mM TCEP, 1% sucrose; Cm-BPH 8.25 mg/ml, Td-BPH 15 mg/ml; profiles fitted with dodecameric and tetradecameric crystal models (FoXS)
[3] = biological target: Cupriavidus metallidurans Betaproteobacteria proteasome homolog (Cm-BPH) (Cupriavidus metallidurans); experiment: negative-stain electron microscopy; 0.1 mg/ml protein, 1% uranyl acetate, particles classified and averaged (EMAN2)
[4] = biological target: Cupriavidus metallidurans Betaproteobacteria proteasome homolog (Cm-BPH) (Cupriavidus metallidurans); experiment: crystal structure; Cm-BPH, space group P6, 2.1 Å, two monomers in the ASU; dodecamer called non-native, malonate molecules intercalated in the intersubunit clefts
[5] = biological target: Thiobacillus denitrificans Betaproteobacteria proteasome homolog (Td-BPH) (Thiobacillus denitrificans); experiment: AUC + SEC-MALS; sedimentation velocity: 0.5 mg/ml protein in buffer A, 20 °C, 40,000 rpm; SEC-coupled multiangle light scattering; self-assembly
[6] = biological target: Thiobacillus denitrificans Betaproteobacteria proteasome homolog (Td-BPH) (Thiobacillus denitrificans); experiment: crystal structure; Td-BPH apo: hexagonal form P6(1)22 (100 mM sodium acetate pH 4.8, 1.2 M sodium nitrate) and orthorhombic form P2(1)2(1)2(1) (100 mM HEPES-NaOH pH 7.0, 600 mM NaF), 2.3 Å
[7] = biological target: Thiobacillus denitrificans Betaproteobacteria proteasome homolog (Td-BPH) (Thiobacillus denitrificans); experiment: SEC-SAXS; Shodex Kw-403 column, 20 °C, 20 mM HEPES-NaOH pH 8.0, 150 mM NaCl, 2 mM TCEP, 1% sucrose; Cm-BPH 8.25 mg/ml, Td-BPH 15 mg/ml; profiles fitted with dodecameric and tetradecameric crystal models (FoXS)
[8] = biological target: Thiobacillus denitrificans Betaproteobacteria proteasome homolog (Td-BPH) (Thiobacillus denitrificans); experiment: negative-stain electron microscopy; 0.1 mg/ml protein, 1% uranyl acetate, particles classified and averaged (EMAN2)

stoichiometry N [1] [subunits]	stoichiometry N [2] [subunits]	stoichiometry N (subunits per ring) [3]	stoichiometry N [4] [subunits]	stoichiometry N [5] [subunits]	stoichiometry N [6] [subunits]	stoichiometry N [7] [subunits]	stoichiometry N (subunits per ring) [8]	Substance
13.8	14	7	12	–	–	–	–	Cupriavidus metallidurans Betaproteobacteria proteasome homolog (Cm-BPH) (enzyme)
–	–	–	–	14	14	14	7	Thiobacillus denitrificans Betaproteobacteria proteasome homolog (Td-BPH) (enzyme)

Source: article PMC5777263
